Reference: patent publication US12012599B2, “Compositions and methods for modulating left-right differentiation factor (LEFTY) and bone morphogenic factor (BMP)” (CZ Biohub SF LLC, priority 2018, dated 2024)

Columns and labels:
[1] = test system: pSMAD2; experiment: Western-blot of pSMAD2 in Comma-D mammary epithelial cells; type: cell-based, mouse; details: Comma-D cells blocked with LEFTY1 200 ng/ml 1 hour, stimulated with BMP7 and Nodal 50 ng/ml 30 minutes
Procedure: FIGS. 4J-4L. LEFTY1 inhibits pSMAD2 and pSMAD5 in Comma-D mouse mammary epithelial cells. […] Comma-D cells were serum starved 16 hours and blocked with LEFTY1 (200 ng/ml) for 1 hour and stimulated with BMP7 (50 ng/ml) and Nodal (50 ng/ml) for 30 minutes in serum free media. Cells were harvested in 1×RIPA Buffer with 1× protease and phosphatase inhibitors on ice. Lysates were diluted in 4× sample buffer and boiled at 95° C. for 5 minutes and then run on a 10% SDS-page gradient gels at 100V for 1 hour. […] The membranes were incubated with either pSMAD2, pSMAD5, total SMAD2/3 or SMAD1/5/8 antibodies overnight. Incubation with secondary antibodies containing fluorophores at 1:20,000 dilution (IRDye 800CW conjugated goat anti-rabbit #926-32211, IRDye 680 conjugated goat anti-mouse antibodies #926-32220, LI-COR Biosciences, Lincoln, NE) enabled visualization on the Odyssey Infrared Imaging System from LI-COR Biosciences. […] Data are represented as median±S.D. Statistical analysis, one-way ANOVA with post-hoc Tukey multiple comparison, ****p<0.0001, ***p<0.001; unless stated analysis is non-significant with p>0.05.

[2] = test system: ACVR2B; experiment: Proximity ligation assay with other TGF-β receptors; type: binding
Procedure: FIGS. 5I-5J: LEFTY1 preferentially interacts with BMPR2. […] BMP7-BMPR2 interaction was used as a positive control, and mouse and rabbit IgGs were used as technical negative controls. The interaction of LEFTY with Wnt receptor LRP6 was analyzed as a biological negative control. […] Data are represented as median±S.D. Statistical analysis, one-way ANOVA post-hoc Tukey multiple comparison, ****p<0.0001, ***p<0.001; unless stated analysis is non-significant with p>0.05.
Next, we assessed the interaction of LEFTY with different type I and type II TGF-β receptors. BMP7-BMPR2 interaction was used as a positive control, and mouse and rabbit IgGs were used as technical negative controls. We also analyzed the interaction of LEFTY with Wnt receptor LRP6 as a biological negative control.

B1: LEFTY1: left-right determination factor 1, secreted TGF-β superfamily protein; generic LEFTY may mean LEFTY1 or LEFTY2 (protein, UniProt O75610 77-366, looked up)
Left-right determination …: RFSQSFREVAGRFLALEASTHLLVFGMEQRLPPNSELVQAVLRLFQEPVPKAALHRHGRLSPRSARARVTVEWLRVRDDGSNRTSLIDSRLVSVHESGWKAFDVTEAVNFWQQLSRPRQPLLLQVSVQREHLGPLASGAHKLVRFASQGAPAGLGEPQLELHTLDLGDYGAQGDCDPEAPMTEGTRCCRQEMYIDLQGMKWAENWVLEPPGFLAYECVGTCRQPPEALAFKWPFLGPRQCIASETDSLPMIVSIKEGGRTRPQVVSLPNMRVQKCSCASDGALVPRRLQP
For B1, the pSMAD2 signal [1] was “inhibited” and the “interaction with other TGF-β receptors, ACVR2B” value [2] was “also interacted”.
